In patent US20150368338A1 (Janssen / Centocor, published 2015):

T1: IFN-αF (human, UniProt P01568 24-189)
T1 chain: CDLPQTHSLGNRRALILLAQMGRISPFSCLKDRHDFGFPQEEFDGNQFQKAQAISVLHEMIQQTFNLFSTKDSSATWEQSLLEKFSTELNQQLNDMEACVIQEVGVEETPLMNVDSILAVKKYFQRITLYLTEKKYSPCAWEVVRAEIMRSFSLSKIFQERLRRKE


Tests used:
IFN-α4a [1] = target: IFN-α4a (human, UniProt P05014 24-189); assay: cell-based or functional assay
human IFN-ω [2] = target: T2, human IFN-ω (human, UniProt P05000 24-195); assay: cell-based or functional assay
IFN-αJ1 [3] = target: IFN-αJ1 (human, UniProt P01567 24-189); assay: cell-based or functional assay
IFN-αK [4] = target: IFN-αK (human, UniProt P05013 24-189); assay: cell-based or functional assay
IFN-αWA [5] = target: IFN-αWA (human, UniProt P05015 24-189); assay: cell-based or functional assay
IFN-αI [6] = target: T3, IFN-αI (human, UniProt P01571 24-189); assay: cell-based or functional assay
[7] = target: Human IFN-ω T80E variant with a C-terminal 6xHis-Tag (human, UniProt P05000 24-195); assay: complex purified by size exclusion and crystallized
IFN-αC = IFN-αC (human, UniProt P01566 24-189); assay: cell-based or functional assay
IFN-αG = IFN-αG (human, UniProt P01569 24-189); assay: cell-based or functional assay
IFN-αJ1 [8] = target: IFN-αJ1 (human, UniProt P01567 24-189); assay: cell-based or functional assay; remark: listed apart in the source
IFN-αH2 = IFN-αH2 (human, UniProt P01570 24-189); assay: cell-based or functional assay
IFN-αF = target: T1, IFN-αF; assay: cell-based or functional assay
human IFN-ω [9] = target: human IFN-ω (human, UniProt P05000 24-195); assay: cell-based or functional assay; remark: listed apart in the source
IFN-αWA [10] = target: IFN-αWA (human, UniProt P05015 24-189); assay: cell-based or functional assay; remark: listed apart in the source
IFN-αI [11] = target: T3, IFN-αI; assay: cell-based or functional assay; remark: listed apart in the source
IFN-α4a [12] = target: IFN-α4a (human, UniProt P05014 24-189); assay: cell-based or functional assay; remark: listed apart in the source
IFN-αK [13] = target: IFN-αK (human, UniProt P05013 24-189); assay: cell-based or functional assay; remark: listed apart in the source
human IFN-ω [14] = target: T2, human IFN-ω; assay: cell-based or functional assay; remark: listed apart in the source

IC50 (pM), ISRE assay (IFN-α4a [1]) [pM] | IC50 (pM), ISRE assay (human IFN-ω [2]) [pM] | IC50 (pM), ISRE assay (IFN-αJ1 [3]) [pM] | IC50 (pM), ISRE assay (IFN-αK [4]) [pM] | IC50 (pM), ISRE assay (IFN-αWA [5]) [pM] | IC50 (pM), ISRE assay (IFN-αI [6]) [pM] | Binder | also measured
166 | 53 | 213 | 34 | 633 | 355 | IFWM3320 (antibody, IgG1, V domains shown) VH: EVQLVQSGAEVKKPGESLKISCKGSGYSFTSYWIGWVRQMPGKGLEWMGIIDPSDSDTRYSPSFQGQVTISADKSISTAYLQWSSLKASDTAMYYCARHPGLNWAPDFDYWGQGTLVTVSS VL: DIQMTQSPSSLSASVGDRVTITCRASQSINGVLNWYQQKPGKAPKLLIYFASSLQSGVPSRFSGSGSGTDFTLTISSLQPEDFATYYCQQSHDFPLTFGQGTKVEIK | –
414 | 68 | 251 | 65 | 839 | 225 | IFWM3385 (antibody, IgG1, V domains shown) VH: EVQLVQSGAEVKKPGESLKISCKGSGYSFTSYWIGWVRQMPGKGLEWMGIIDPSDSDTRYSPSFQGQVTISADKSISTAYLQWSSLKASDTAMYYCARHPGLAWAPDFDYWGQGTLVTVSS VL: DIQMTQSPSSLSASVGDRVTITCRASQSIGDFLNWYQQKPGKAPKLLIYFASSLQSGVPSRFSGSGSGTDFTLTISSLQPEDFATYYCQQALDFPLTFGQGTKVEIK | –
220 | 29 | 154 | 35 | 376 | 137 | IFWM3400 (antibody, IgG1, V domains shown) VH: EVQLVQSGAEVKKPGESLKISCKGSGYSFTSYWIGWVRQMPGKGLEWMGIIDPSDSDTRYSPSFQGQVTISADKSISTAYLQWSSLKASDTAMYYCARHPGLAWAPDFDYWGQGTLVTVSS VL: DIQMTQSPSSLSASVGDRVTITCRASQSIADFLNWYQQKPGKAPKLLIYFASSLQSGVPSRFSGSGSGTDFTLTISSLQPEDFATYYCQQSHSFPLTFGQGTKVEIK | –
519 | 228 | 487 | 76 | 947 | 893 | IFWM3332 (antibody, IgG1, V domains shown) VH: EVQLVQSGAEVKKPGESLKISCKGSGYSFTSYWIGWVRQMPGKGLEWMGIIDPSDSDTRYSPSFQGQVTISADKSISTAYLQWSSLKASDTAMYYCARHPGLNWAPDFDYWGQGTLVTVSS VL: DIQMTQSPSSLSASVGDRVTITCRASQSIANTNLNWYQQKPGKAPKLLIHWASSLQSGVPSRFSGSGSGTDFTLTISSLQPEDFATYYCQQWYDNPLTFGQGTKVEIK | –
192 | 89 | 217 | 41 | 538 | 183 | IFWM3410 (antibody, IgG1, V domains shown) VH: EVQLVQSGAEVKKPGESLKISCKGSGYSFTSYWIGWVRQMPGKGLEWMGIIDPSDSDTRYSPSFQGQVTISADKSISTAYLQWSSLKASDTAMYYCARHPGLAWAPDFDYWGQGTLVTVSS VL: DIQMTQSPSSLSASVGDRVTITCRASQSIANTNLNWYQQKPGKAPKLLIHWASSLQSGVPSRFSGSGSGTDFTLTISSLQPEDFATYYCQQWYDNPLTFGQGTKVEIK | –
352 | 59 | 169 | 71 | 382 | 460 | IFWM3322 (antibody, IgG1, V domains shown) VH: EVQLVQSGAEVKKPGESLKISCKGSGYSFTSYWIGWVRQMPGKGLEWMGIIDPSDSDTRYSPSFQGQVTISADKSISTAYLQWSSLKASDTAMYYCARHPGLNWAPDFDYWGQGTLVTVSS VL: DIQMTQSPSSLSASVGDRVTITCRASQSIADFLNWYQQKPGKAPKLLIYFASSLQSGVPSRFSGSGSGTDFTLTISSLQPEDFATYYCQQSHSFPLTFGQGTKVEIK | –
– | – | – | – | – | – | Fab IFWM371 (His-tagged, IgG1/kappa isotype) (Fab, V domains shown, His-tagged Fab expressed in HEK293 cells for crystallography; C-terminal 6xHis tag; also called FabM371; Fab of IFWM371) VH: EVQLVQSGAEVKKPGESLKISCKGSGYSFTSYWIGWVRQMPGKGLEWMGIIDPSDSDTRYSPSFQGQVTISADKSISTAYLQWSSLKASDTAMYYCARHPGLNWAPDFDYWGQGTLVTVSS VL: not shown | binding result [7]: binds
– | – | – | – | – | – | IFWM3522 (antibody, IgG1, V domains shown) VH: EVQLVQSGAEVKKPGESLKISCKGSGYSFTSYWIGWVRQMPGKGLEWMGIIDPSDSDTRYSPSFQGQVTISADKSISTAYLQWSSLKASDTAMYYCARHPGLNWAPDFDYWGQGTLVTVSS VL: DIQMTQSPSSLSASVGDRVTITCRASQSIEGALNWYQQKPGKAPKLLIYFASSLQSGVPSRFSGSGSGTDFTLTISSLQPEDFATYYCQQAYDFPLTFGQGTKVEIK | IC50, ISRE reporter gene assay (IFN-αC): 0.077 nM; IC50, ISRE reporter gene assay (IFN-αG): 0.057 nM; IC50, ISRE reporter gene assay (IFN-αJ1 [8]): 0.134 nM; IC50, ISRE reporter gene assay (IFN-αH2): 0.034 nM; IC50, ISRE reporter gene assay (IFN-αF): 0.225 nM; IC50, ISRE reporter gene assay (human IFN-ω [9]): 0.053 nM; IC50, ISRE reporter gene assay (IFN-αWA [10]): 0.185 nM; IC50, ISRE reporter gene assay (IFN-αI [11]): 0.124 nM; IC50, ISRE reporter gene assay (IFN-α4a [12]): 0.163 nM; IC50, ISRE reporter gene assay (IFN-αK [13]): 0.029 nM
– | – | – | – | – | – | IFWM3460 (antibody, V domains shown) VH: EVQLVQSGAEVKKPGESLKISCKGSGYSFTSYWIGWVRQMPGKGLEWMGIIDPSDSDTRYSPSFQGQVTISADKSISTAYLQWSSLKASDTAMYYCARHPGLNWAPDFDYWGQGTLVTVSS VL: DIQMTQSPSSLSASVGDRVTITCRASQSIDGFLNWYQQKPGKAPKLLIYVASSLQSGVPSRFSGSGSGTDFTLTISSLQPEDFATYYCQQSYDLPITFGQGTKVEIK | IC50 (pM), ISRE reporter gene assay (human IFN-ω [14]): 43.5 pM
– | – | – | – | – | – | IFWM3525 (antibody, IgG1, V domains shown) VH: EVQLVQSGAEVKKPGESLKISCKGSGYSFTSYWIGWVRQMPGKGLEWMGIIDPSDSDTRYSPSFQGQVTISADKSISTAYLQWSSLKASDTAMYYCARHPGLNWAPDFDYWGQGTLVTVSS VL: DIQMTQSPSSLSASVGDRVTITCRASQSIDNSYLNWYQQKPGKAPKLLIYGASSLQSGVPSRFSGSGSGTDFTLTISSLQPEDFATYYCQQGYDFPLTFGQGTKVEIK | IC50, ISRE reporter gene assay (IFN-αC): 0.034 nM; IC50, ISRE reporter gene assay (IFN-αG): 0.019 nM; IC50, ISRE reporter gene assay (IFN-αJ1 [8]): 0.084 nM; IC50, ISRE reporter gene assay (IFN-αH2): 0.015 nM; IC50, ISRE reporter gene assay (IFN-αF): 0.082 nM; IC50, ISRE reporter gene assay (human IFN-ω [9]): 0.019 nM; IC50, ISRE reporter gene assay (IFN-αWA [10]): 0.066 nM; IC50, ISRE reporter gene assay (IFN-αI [11]): 0.24 nM; IC50, ISRE reporter gene assay (IFN-α4a [12]): 0.042 nM; IC50, ISRE reporter gene assay (IFN-αK [13]): 0.007 nM
86 | 19 | 26 | 22 | 216 | 72 | IFWM3405 (antibody, IgG1, V domains shown) VH: EVQLVQSGAEVKKPGESLKISCKGSGYSFTSYWIGWVRQMPGKGLEWMGIIDPSDSDTRYSPSFQGQVTISADKSISTAYLQWSSLKASDTAMYYCARHPGLAWAPDFDYWGQGTLVTVSS VL: DIQMTQSPSSLSASVGDRVTITCRASQSIANNNLNWYQQKPGKAPKLLIHWASSLQSGVPSRFSGSGSGTDFTLTISSLQPEDFATYYCQQGYDTPFTFGQGTKVEIK | –
1170 | 456 | 1660 | 321 | 3080 | 2000 | IFWM3328 (antibody, IgG1, V domains shown) VH: EVQLVQSGAEVKKPGESLKISCKGSGYSFTSYWIGWVRQMPGKGLEWMGIIDPSDSDTRYSPSFQGQVTISADKSISTAYLQWSSLKASDTAMYYCARHPGLNWAPDFDYWGQGTLVTVSS VL: DIQMTQSPSSLSASVGDRVTITCRASQSINNLNWYQQKPGKAPKLLIYWASSLQSGVPSRFSGSGSGTDFTLTISSLQPEDFATYYCQQGYDTPFTFGQGTKVEIK | –
– | – | – | – | – | – | IFWM3455 (antibody, V domains shown) VH: EVQLVQSGAEVKKPGESLKISCKGSGYSFTSYWIGWVRQMPGKGLEWMGIIDPSDSDTRYSPSFQGQVTISADKSISTAYLQWSSLKASDTAMYYCARHPGLNWAPDFDYWGQGTLVTVSS VL: DIQMTQSPSSLSASVGDRVTITCRASQSIDGYLNWYQQKPGKAPKLLIYFASSLQSGVPSRFSGSGSGTDFTLTISSLQPEDFATYYCQQSYDLPITFGQGTKVEIK | IC50 (pM), ISRE reporter gene assay (human IFN-ω [14]): 24 pM
201 | 40 | 61 | 43 | 779 | 158 | IFWM3416 (antibody, IgG1, V domains shown) VH: EVQLVQSGAEVKKPGESLKISCKGSGYSFTSYWIGWVRQMPGKGLEWMGIIDPSDSDTRYSPSFQGQVTISADKSISTAYLQWSSLKASDTAMYYCARHPGLAWAPDFDYWGQGTLVTVSS VL: DIQMTQSPSSLSASVGDRVTITCRASQSIRNTNLNWYQQKPGKAPKLLIHWASSLQSGVPSRFSGSGSGTDFTLTISSLQPEDFATYYCQQGYDTPFTFGQGTKVEIK | –
